Like-named read-outs stand apart in the source and are kept apart here.
Tests used:
[1] = tested on: T-47D cells; assay: In vitro cell uptake (internalization) study in T-47D cells; type: cell-based, human; details: after 4 h, % of total added activity
Procedure: Cell culture. All cell lines were grown in suitable culture medium at 37 °C in a humidified CO2 (5%) atmosphere. The human breast cancer cell lines T-47D, MDA-MB-231 and MCF-7 were grown in Dulbecco’s Modified Eagle Medium (DMEM), supplemented with 10% (v/v) fetal calf serum (FCS) and 1% (v/v) L-Glutamine. For a high expression of the NPY(Y1) receptor on T-47D cells, the medium for this cell line was further supplemented with 0.15% (w/v) β-estradiol. The BT-474 and PC-3 cell lines were grown in RPMI-1640 medium, also supplemented with 10% (v/v) fetal calf serum (FCS) and 1% (v/v) L-Glutamine.
Internalization studies. Cells (T-47D, MDA-MB-231, MCF-7, BT-474 and PC-3, 1.5 × 10^6 cells per well) were seeded into 6-well plates and incubated overnight at 37 °C in a humidified CO2 (5%) atmosphere. The next day, the medium was removed and the cells were washed twice with the respective medium without supplements (ice-cold, 1 mL) and incubated with 3.7–4.0 kBq (0.37–4.0 pmol) of the respective ^68Ga-radiolabeled ligand [^68Ga]22−[^68Ga]26, [^68Ga]27 or [^68Ga]28 (in 1.5 mL medium, containing 0.5% (w/v) BSA) for defined time-points of 1, 2, 3 or 4 h at 37 °C in a humidified CO2 (5%) atmosphere. A 1000-fold excess of the respective peptide (3 or 4) was used for blocking to determine the non-specific cell uptake. At each time point, the medium was removed and the cells were washed twice with the respective medium without supplements (ice-cold, 1 mL). Cells were treated twice with 1 mL glycine buffer (ice-cold, 50 mM glycine, 100 mM NaCl, pH 2.8) for 5 min at room temperature, followed by 2 mL NaOH solution (1 M) for 10 min at 37 °C. The supernatants were collected and the radioactivity measured in a gamma counter. The internalized and surface bound activity was expressed as percentage of measured to total added activity. Each data point was generated thrice in triplicates.

[2] = tested on: T-47D tumor-bearing mice; assay: Ex vivo biodistribution in T-47D tumor-bearing mice; details: 130 min p.i.
Procedure: (§1) In vivo experiments. All animal experiments were performed in compliance with the German animal protection laws and protocols of the local committee (Regierungspräsidium Karlsruhe, approval number: 35-9185.81/G-206/15). 20, six week old female immunodeficient Fox Chase SCID (CB17/Icr-Prkdc^scid/IcrIcoCrl) mice with an average weight of 20 g were subcutaneously implanted with 17β-estradiol pellets (0.36 mg/60 days). 4 days later, the tumors were induced by subcutaneous inoculation of 5 × 10^6 T-47D cells into the left flank of the […]. After induction, the tumors were allowed to grow for 8–10 weeks and reached a diameter of about 0.5 cm. For imaging, the animals were anaesthetized with isoflurane and injected with 5.5–8.0 MBq of the respective radioligand ([^68Ga]24, [^68Ga]24a or [^68Ga]24b) into the lateral tail vein. Dynamic PET images were acquired over 90 min and CT images were obtained within further 30 min. After the end of the diagnostic scan, the animals were sacrificed, the organs were collected and measured in a gamma-counter.

[3] = as above; details: female, Fox Chase SCID (CB17/Icr-Prkdc^scid/IcrIcoCrl), mouse, in vivo, iv, total radioactivity, ex vivo biodistribution at 130 min p.i.
Procedure: as §1

[4] = tested on: T-47D tumor; assay: Small animal PET/CT imaging in T-47D tumor-bearing mice; type: in vivo; details: PET imaging, i.v. 5.5-8.0 MBq, n = 4
Procedure: as §1, with “For imaging, the animals were anaesthetized with isoflurane and injected with 5.5–8.0 MBq of the respective radioligand ([^68Ga]24, [^68Ga]24a or [^68Ga]24b) into the lateral tail vein. Dynamic PET images were acquired over 90 min and CT images were obtained within further 30 min.” left out
The dynamic PET images were reconstructed using the Albira Suite Reconstructor (Bruker) with an iterative dynamic reconstruction with 12 iterations using an 2D-Maximum-Likelihood Expectation-Maximization (MLEM) algorithm and a cubic image voxel size of 0.5 mm after scatter and decay correction. […] The reconstructed PET data were manually fused with the CT images using PMOD 3.6.1.1. and analyzed. Volumes of interest (VOIs) were defined for the quantification of tracer accumulation in heart, liver, kidneys, tumor, and muscle. The results for each VOI were calculated as SUV (kBq/cm^3) averaged for each time frame.

[5] = Determination of radiotracer lipophilicity (logD, phosphate buffer/1-octanol); type: physicochemical; details: phosphate buffer (0.05 M, pH 7.4) / 1-octanol, six independent experiments
Procedure: Determination of radiotracer lipophilicity. The heterobivalent ligands (22–26) as well as the monomeric reference compounds (27 and 28) were radiolabeled with ^68Ga as described before and 2 µL of the product solution (~65 pmol of the respective radioligand) were added to a mixture of phosphate buffer (0.05 M, pH 7.4, 800 µL) and 1-octanol (800 µL) and incubated for 5 min at ambient temperature under vigorous shaking. Both phases were separated by centrifugation and 100 µL of each phase were measured for radioactivity in a gamma-counter. […] (cpm = counts per minute), cpmw = activity in the aqueous phase [cpm]. These experiments were performed six times independently.

[6] = Stability of the 68Ga-labeled ligands in human serum; type: in vitro ADME; details: after 90 min incubation at 37 °C, radio-HPLC
Procedure: Determination of the stability of the ligands in human serum. The heterobivalent ligands (22–26) as well as the monomeric reference compounds (27 and 28) were radiolabeled with ^68Ga as described before and 125 µL of the product solution were added to 500 µL of human serum and incubated at 37 °C. At defined time-points of 5, 15, 30, 60 and 90 min, aliquots of 75 µL of the mixture were added to 75 µL of ethanol and the precipitation of serum proteins was enhanced by ice-cooling for 2 min. After centrifugation, supernatant and precipitate were measured for radioactivity and the supernatant was analyzed by analytical radio-HPLC. These experiments were performed thrice.

CCCC[C@H](NC(=O)[C@H](CCCNC(=N)N)NC(=O)[C@H](Cc1c[nH]c2ccccc12)NC(=O)[C@H](CCCCNC(=O)CON=Cc1ccc(C(=O)NCCOCCOCCOCCOCCC(=O)NCCCN(CCCNC(=O)CCOCCOCCOCCOCCNC(=O)c2ccc(C=NOCC(=O)NCCOCCOCCOCCOCCC(=O)N[C@@H](CCC(N)=O)C(=O)N[C@@H](Cc3c[nH]c4ccccc34)C(=O)N[C@@H](C)C(=O)N[C@H](C(=O)NCC(=O)N[C@@H](Cc3c[nH]cn3)C(=O)N[C@@H](CC(C)C)C(=O)N[C@@H](CCSC)C(N)=O)C(C)C)cc2)CC(=O)NCCOCCOCCOCCOCCC(=O)N[C@@H](CCCCNC(=O)CCC(C(=O)O)N2CCN(CC(=O)O)CCN(CC(=O)O)CC2)C(N)=O)cc1)NC(=O)[C@@H]1CCCN1C(=O)[C@H](CC(N)=O)NC(=O)[C@@H](N)[C@@H](C)CC)C(=O)N[C@@H](CCCNC(=N)N)C(=O)N[C@@H](Cc1ccc(O)cc1)C(N)=O (stereo partly drawn) [[^68Ga]24, metal not drawn] showed a specific cell uptake [1] of 50.1 ± 2.4%, an adrenal glands uptake ([2]; adrenal glands) of 3.57 ± 2.18 ID/g in % and a blood uptake ([2]; blood) of 1.13 ± 0.77 ID/g in %. The bone uptake ([2]; bone) was 0.26 ± 0.14 ID/g in %, the brain uptake ([2]; brain) was 0.11 ± 0.14 ID/g in % and the heart uptake ([2]; heart) was 0.52 ± 0.38 ID/g in %. The kidneys uptake ([2]; kidneys) was 34.79 ± 11.03 ID/g in %, the large intestines uptake ([2]; large intestines) was 1.80 ± 0.64 ID/g in % and the liver uptake ([2]; liver) was 10.02 ± 1.54 ID/g in %. It also gave a lung uptake ([2]; lung) of 0.62 ± 0.17 ID/g in %, a muscle uptake ([2]; muscle) of 0.26 ± 0.18 ID/g in % and a pancreas uptake ([2]; pancreas) of 10.54 ± 3.13 ID/g in %. It also gave a small intestines uptake ([2]; small intestines) of 1.49 ± 0.36 ID/g in %, a spleen uptake ([2]; spleen) of 1.32 ± 0.33 ID/g in % and a stomach uptake ([2]; stomach) of 1.47 ± 0.44 ID/g in %. For the same compound, the tail uptake ([2]; tail) was 1.30 ± 1.21 ID/g in %, the tumor uptake ([2]; tumor) was 3.07 ± 0.33 ID/g in % and the tissue to tissue ratio at 130 min ([3]; read-out: tumor-to-blood ratio (T / B)) was 2.72 ± 0.43. The tissue to tissue ratio at 130 min ([3]; read-out: tumor-to-muscle ratio (T / M)) was 11.8 ± 1.83, the “tumor activity concentration at 85 min” value [4] was 122.03 ± 16.27 kBq/cm^3 and the logD [5] was -1.67 ± 0.086. For the same compound, the “degradation in human serum” value [6] was “no observable fragmentation”.
CCCC[C@H](NC(=O)[C@H](CCCNC(=N)N)NC(=O)[C@H](Cc1c[nH]c2ccccc12)NC(=O)[C@H](CCCCNC(=O)CON=Cc1ccc(C(=O)NC2CCN(CC(=O)NC3CCN(CC(=O)NCCCN(CCCNC(=O)CN4CCC(NC(=O)CN5CCC(NC(=O)c6ccc(C=NOCC(=O)NCCOCCOCCOCCOCCC(=O)N[C@@H](CCC(N)=O)C(=O)N[C@@H](Cc7c[nH]c8ccccc78)C(=O)N[C@@H](C)C(=O)N[C@H](C(=O)NCC(=O)N[C@@H](Cc7c[nH]cn7)C(=O)N[C@@H](CC(C)C)C(=O)N[C@@H](CCSC)C(N)=O)C(C)C)cc6)CC5)CC4)CC(=O)NCCOCCOCCOCCOCCC(=O)N[C@@H](CCCCNC(=O)CCC(C(=O)O)N4CCN(CC(=O)O)CCN(CC(=O)O)CC4)C(N)=O)CC3)CC2)cc1)NC(=O)[C@@H]1CCCN1C(=O)[C@H](CC(N)=O)NC(=O)[C@@H](N)[C@@H](C)CC)C(=O)N[C@@H](CCCNC(=N)N)C(=O)N[C@@H](Cc1ccc(O)cc1)C(N)=O (stereo partly drawn) [[^68Ga]26, metal not drawn] gave a specific cell uptake [1] of 46.4 ± 2.4% and a logD [5] of -1.52 ± 0.089.

Source: article PMC6161111, “Design, Synthesis, In Vitro, and Initial In Vivo Evaluation of Heterobivalent Peptidic Ligands Targeting Both NPY(Y1)- and GRP-Receptors—An Improvement for Breast Cancer Imaging?” (Pharmaceuticals, 2018)
